Source: publication PMC10394066, “Polymorphic amyloid nanostructures of hormone peptides involved in glucose homeostasis display reversible amyloid formation” (Nature Communications, 2023)
Non-standard residues stand in square brackets, D forms with d. No end group written: not given here. pGlu = O=C1CC[C@@H](C(=O)O)N1

Key:
[1] = target: the molecule itself; assay: crystal structure; amyloid-like single crystals grown from peptide solutions (water, water/ACN/TFA, water/EtOH or 0.1 M citrate pH 4.0; pH 2-7; 4-37 °C; conditions of each polymorph in Table 1); data at 100 K, Cu Kα
[2] = target: the molecule itself; assay: far-UV CD; 0.15–0.20 mM peptide in distilled water, physiological pH and above (above pH 5), stirred 500–600 rpm at 37 °C, measured at 25 °C for up to weeks
[3] = target: the molecule itself; assay: FTIR; 6 mM peptide in water, pH adjusted from 7.2 to 4.2; amide I band 1625–1630 cm^−1; bio-ATR cell
[4] = target: the molecule itself; assay: far-UV CD; 0.15–0.20 mM peptide in distilled water, acidic pH set with HCl/NaOH, stirred 500–600 rpm at 37 °C, measured at 0–168 h at 25 °C; U to β/β’-type spectral shift

B1: pEFIAWL (APR^GLP1 with N-terminal pyroglutamic acid) (peptide)
peptide: [pGlu]FIAWL
notes: aggregation-prone hexapeptide segment of human GLP-1; residue 1 is pyroglutamic acid; Both EFIAWL and pEFIAWL were present in the crystallization samples; the crystal holds pEFIAWL; also called pEFIAWL (GLP-1); APR^GLP1 (in the crystal); source: formed from synthetic EFIAWL by spontaneous ring closure in the crystallization sample (pH ≈ 2, 37 °C)
binding result [1]: binds

B2: APR^GLP2 hexapeptide DFINWL (aggregation-prone region of glucagon-like peptide 2) (peptide)
peptide: DFINWL
notes: aggregation-prone hexapeptide segment of human glucagon-like peptide 2 (GLP-2); free termini (no terminal protection); also called DFINWL (GLP-2); source: synthetic peptide (flow solid-phase synthesis, Fmoc/tBu; RP-HPLC purified)
binding result [1]: binds

B3: APR^Tc5b hexapeptide LYIQWL (synthetic exendin-like APR of the de novo designed Tc5b and E19) (peptide)
peptide: LYIQWL
notes: hexapeptide segment of the de novo designed Trp-cage exendin derivatives Tc5b and E19; non-natural, no acidic side chain; also called LYIQWL (Tc5b, E19); source: synthetic peptide (flow solid-phase synthesis, Fmoc/tBu; RP-HPLC purified)
binding result [2]: binds

B4: APR^GLP1 hexapeptide EFIAWL (aggregation-prone region of glucagon-like peptide 1) (peptide)
peptide: EFIAWL
notes: aggregation-prone hexapeptide segment of human glucagon-like peptide 1 (GLP-1); source: synthetic peptide (flow solid-phase synthesis, Fmoc/tBu; RP-HPLC purified)
binding result [3]: binds

B5: Ac-EFIAWL (N-terminally acetylated APR^GLP1) (peptide)
peptide: Ac-EFIAWL
notes: aggregation-prone hexapeptide segment of human GLP-1, N-terminally acetylated; also called Ac-EFIAWL (GLP-1); source: synthetic peptide
binding result [4]: binds
